Measured values taken from the RNAGym collection of RNA variant scans (doi:10.1093/molbev/msab373).

B1: Azoarcus group I ribozyme (parent)
chain: GUGCCUUGCGCCGGGAAACCACGCAAGGGAUGGUGUCAAAUUCGGCGAAACCUAAGCGCCCGCCCGGGCGUAUGGCAACGCCGAGCCAAGCUUCGGCGCCUGCGCCGAUGAAGGUGUAGAGACUAGACGGCACCCACCUAAGGCAAACGCUAUGGUGAAGGCAUAGUCCAGGGAGUGGCGAAAGUCACACAAACCGG

Variants of: B1
Test: reverse-splicing fitness (ratio to wild type); higher = more active; in vitro selection; Mg2+ level not given
How it was run: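 An in vitro group I ribozyme library with randomized positions was T7-transcribed and gel-purified. In triplicate, 10 pmol RNA in EPPS pH 7.5 was reacted with 50 pmoles of a 30-nt RNA substrate for 1 h at 37 °C across several added MgCl2 levels (1–48 mM), then stopped with EDTA. Products were reverse transcribed from a substrate-complementary primer, PCR-amplified and sequenced (HiSeq 4000). Fitness is a variant's read proportion after selection over that before, normalised to wild type.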

Going from GUGCCUUGCGCCGGGAAACCACGCAAGGGAUGGUGUCAAAUUCGGCGAAACCUAAGCGCCCGCCCGGGCGUAUGGCAACGCUGAGCCAAGCUUCGGCGCCUGCGCCGAUGAAGGUGUAGAGACUAGACGGCACCCACCUAAGGCCAACGGUAUGGUGAAGGCAUAGUCAAGGGAGAGGCGAAAGUCACACAAACCGG [C82U A145C C150G C169A U176A] to GUGCCUUGCGCCGGGAAACCACGCAAGGGAUGGUGUCAAAUUCGGCGAAACCUAAGCGCCCGCCCGGGCGUAUGGCAACGCUGAGCCAAGCUUCGGCGCCUGCGCCGAUGAAGGUGUAGAGACUAGACGGCACCCACCUAAGGCCAACGAUAUGGUGAAGGCAUAGUCUAGGGAGGGGCGAAAGUCACACAAACCGG [C82U A145C C150A C169U U176G], the reverse-splicing fitness falls from 0.00717 to 0.00503.

Compared with GUGCCUUGCGCCGGGAAACCACGCAAGGGAUGGUGUCAAAUUCGGCGAAACCUAAGCGCCCGCCCGGGCGUAUGGCAACGCUGAGCCAAGCUUCGGCGCCUGCGCCGAUGAAGGUGUAGAGACUAGACGGCACCCACCUAAGGCCAACGAUAUGGUGAAGGCAUAGUCUAGGGAGAGGCGAAAGUCACACAAACCGG [C82U A145C C150A C169U U176A], GUGCCUUGCGCCGGGAAACCACGCAAGGGAUGGUGUCAAAUUCGGCGAAACCUAAGCGCCCGCCCGGGCGUAUGGCAACGCUGAGCCAAGCUUCGGCGCCUGCGCCGAUGAAGGUGUAGAGACUAGACGGCACCCACCUAAGGCCAACGAUAUGGUGAAGGCAUAGUCUAGGGAGCGGCGAAAGUCACACAAACCGG [C82U A145C C150A C169U U176C] is lower in reverse-splicing fitness: 0.0103 for the first, 0.00693 for the second.

Going from GUGCCUUGCGCCGGGAAACCACGCAAGGGAUGGUGUCAAAUUCGGCGAAACCUAAGCGCCCGCCCGGGCGUAUGGCAACGCUGAGCCAAGCUUCGGCGCCUGCGCCGAUGAAGGUGUAGAGACUAGACGGCACCCACCUAAGGCCAACGAUAUGGUGAAGGCAUAGUCCAGGGAGUGGCGAAAGUCACACAAACCGG [C82U A145C C150A] to GUGCCUUGCGCCGGGAAACCACGCAAGGGAUGGUGUCAAAUUCGGCGAAACCUAAGCGCCCGCCCGGGCGUAUGGCAACGCUGAGCCAAGCUUCGGCGCCUGCGCCGAUGAAGGUGUAGAGACUAGACGGCACCCACCUAAGGCCAACGGUAUGGUGAAGGCAUAGUCCAGGGAGUGGCGAAAGUCACACAAACCGG [C82U A145C C150G], the reverse-splicing fitness rises from 0.0351 to 0.0813.

Going from GUGCCUUGCGCCGGGAAACCACGCAAGGGAUGGUGUCAAAUUCGGCGAAACCUAAGCGCCCGCCCGGGCGUAUGGCAACGCUGAGCCAAGCUUCGGCGCCUGCGCCGAUGAAGGUGUAGAGACUAGACGGCACCCACCUAAGGCCAACGGUAUGGUGAAGGCAUAGUCAAGGGAGUGGCGAAAGUCACACAAACCGG [C82U A145C C150G C169A] to GUGCCUUGCGCCGGGAAACCACGCAAGGGAUGGUGUCAAAUUCGGCGAAACCUAAGCGCCCGCCCGGGCGUAUGGCAACGCUGAGCCAAGCUUCGGCGCCUGCGCCGAUGAAGGUGUAGAGACUAGACGGCACCCACCUAAGGCCAACGGUAUGGUGAAGGCAUAGUCGAGGGAGUGGCGAAAGUCACACAAACCGG [C82U A145C C150G C169G], the reverse-splicing fitness falls from 0.00743 to 0.00699.

Going from GUGCCUUGCGCCGGGAAACCACGCAAGGGAUGGUGUCAAAUUCGGCGAAACCUAAGCGCCCGCCCGGGCGUAUGGCAACGCUGAGCCAAGCUUCGGCGCCUGCGCCGAUGAAGGUGUAGAGACUAGACGGCACCCACCUAAGGCCAACGAUAUGGUGAAGGCAUAGUCAAGGGAGAGGCGAAAGUCACACAAACCGG [C82U A145C C150A C169A U176A] to GUGCCUUGCGCCGGGAAACCACGCAAGGGAUGGUGUCAAAUUCGGCGAAACCUAAGCGCCCGCCCGGGCGUAUGGCAACGCUGAGCCAAGCUUCGGCGCCUGCGCCGAUGAAGGUGUAGAGACUAGACGGCACCCACCUAAGGCCAACGAUAUGGUGAAGGCAUAGUCAAGGGAGCGGCGAAAGUCACACAAACCGG [C82U A145C C150A C169A U176C], the reverse-splicing fitness falls from 0.0088 to 0.00505.

First: GUGCCUUGCGCCGGGAAACCACGCAAGGGAUGGUGUCAAAUUCGGCGAAACCUAAGCGCCCGCCCGGGCGUAUGGCAACGCUGAGCCAAGCUUCGGCGCCUGCGCCGAUGAAGGUGUAGAGACUAGACGGCACCCACCUAAGGCCAACGAUAUGGUGAAGGCAUAGUCAAGGGAGGGGCGAAAGUCACACAAACCGG [C82U A145C C150A C169A U176G]
Second: GUGCCUUGCGCCGGGAAACCACGCAAGGGAUGGUGUCAAAUUCGGCGAAACCUAAGCGCCCGCCCGGGCGUAUGGCAACGCUGAGCCAAGCUUCGGCGCCUGCGCCGAUGAAGGUGUAGAGACUAGACGGCACCCACCUAAGGCCAACGGUAUGGUGAAGGCAUAGUCGAGGGAGAGGCGAAAGUCACACAAACCGG [C82U A145C C150G C169G U176A]
The reverse-splicing fitness of the first is lower: 0.0047 for the first, 0.00879 for the second.

Compared with GUGCCUUGCGCCGGGAAACCACGCAAGGGAUGGUGUCAAAUUCGGCGAAACCUAAGCGCCCGCCCGGGCGUAUGGCAACGCUGAGCCAAGCUUCGGCGCCUGCGCCGAUGAAGGUGUAGAGACUAGACGGCACCCACCUAAGGCCAACGAUAUGGUGAAGGCAUAGUCGAGGGAGAGGCGAAAGUCACACAAACCGG [C82U A145C C150A C169G U176A], GUGCCUUGCGCCGGGAAACCACGCAAGGGAUGGUGUCAAAUUCGGCGAAACCUAAGCGCCCGCCCGGGCGUAUGGCAACGCUGAGCCAAGCUUCGGCGCCUGCGCCGAUGAAGGUGUAGAGACUAGACGGCACCCACCUAAGGCCAACGAUAUGGUGAAGGCAUAGUCGAGGGAGGGGCGAAAGUCACACAAACCGG [C82U A145C C150A C169G U176G] is lower in reverse-splicing fitness: 0.0178 for the first, 0.00485 for the second.

For GUGCCUUGCGCCGGGAAACCACGCAAGGGAUGGUGUCAAAUUCGGCGAAACCUAAGCGCCCGCCCGGGCGUAUGGCAACGCUGAGCCAAGCUUCGGCGCCUGCGCCGAUGAAGGUGUAGAGACUAGACGGCACCCACCUAAGGCCAACGAUAUGGUGAAGGCAUAGUCGAGGGAGCGGCGAAAGUCACACAAACCGG [C82U A145C C150A C169G U176C], the reverse-splicing fitness was 0.00995.
